The values that follow are results of earlier work, collected in article PMC3236687.

Broadly, the Kd is the free concentration of one partner at which half of the binding sites on the other are occupied at equilibrium, for simple one-to-one binding.

For data set [1], the target named is endothelin receptor (renal papillary membranes) (Sus scrofa) (UniProt P35463). As to the kind of experiment: radioligand.
The target in data set [2] is endothelin receptors (IMCD cells) (Rattus norvegicus) (UniProt P26684). Briefly: radioligand.
UniProt P26684, sequence (P26684 21-426, chain 1 of 2): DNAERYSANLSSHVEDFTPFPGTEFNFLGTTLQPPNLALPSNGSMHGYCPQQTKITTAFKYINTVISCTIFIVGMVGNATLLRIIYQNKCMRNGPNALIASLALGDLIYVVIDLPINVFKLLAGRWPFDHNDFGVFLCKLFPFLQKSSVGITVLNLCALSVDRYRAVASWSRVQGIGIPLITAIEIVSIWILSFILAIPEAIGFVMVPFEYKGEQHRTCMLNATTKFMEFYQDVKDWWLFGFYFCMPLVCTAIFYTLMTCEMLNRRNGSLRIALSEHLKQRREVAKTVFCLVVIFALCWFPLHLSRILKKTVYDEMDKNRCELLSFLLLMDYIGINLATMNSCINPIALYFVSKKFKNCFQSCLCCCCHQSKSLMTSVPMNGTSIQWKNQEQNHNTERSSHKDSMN
UniProt P26684, sequence (P21451 27-442, chain 2 of 2, further chain): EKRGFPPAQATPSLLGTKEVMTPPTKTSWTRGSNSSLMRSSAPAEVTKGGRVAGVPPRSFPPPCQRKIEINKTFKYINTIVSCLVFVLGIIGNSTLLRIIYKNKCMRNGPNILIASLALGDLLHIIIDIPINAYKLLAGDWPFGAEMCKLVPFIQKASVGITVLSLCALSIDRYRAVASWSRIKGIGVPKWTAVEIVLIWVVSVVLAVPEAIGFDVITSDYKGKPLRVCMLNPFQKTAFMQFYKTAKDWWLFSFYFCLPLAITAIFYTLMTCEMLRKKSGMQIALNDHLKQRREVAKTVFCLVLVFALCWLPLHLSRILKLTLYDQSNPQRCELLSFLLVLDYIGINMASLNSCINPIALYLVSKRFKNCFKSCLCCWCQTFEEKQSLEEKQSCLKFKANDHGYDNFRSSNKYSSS

UniProt P35463, sequence (P35463 27-443): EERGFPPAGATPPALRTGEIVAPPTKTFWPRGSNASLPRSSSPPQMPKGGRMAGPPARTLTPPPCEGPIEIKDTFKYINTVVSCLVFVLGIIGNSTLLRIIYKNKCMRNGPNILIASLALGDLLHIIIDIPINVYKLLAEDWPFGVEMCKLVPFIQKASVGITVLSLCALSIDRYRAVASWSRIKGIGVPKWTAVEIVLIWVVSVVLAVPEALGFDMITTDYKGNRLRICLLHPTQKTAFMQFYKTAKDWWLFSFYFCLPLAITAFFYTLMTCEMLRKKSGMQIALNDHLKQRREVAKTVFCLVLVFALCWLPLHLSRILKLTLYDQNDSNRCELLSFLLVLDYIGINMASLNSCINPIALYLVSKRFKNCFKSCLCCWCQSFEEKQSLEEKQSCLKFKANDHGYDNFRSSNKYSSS

As for ET-1 (from UniProt P05305), the Kd is 0.137 nM in data set [1] and 0.218 nM in data set [2].
